B1: anti-tau antibody MC1 expressed from viral genome construct MC1HIRESL (TAU_ITR75; SEQ ID NO: 2064) (antibody, mouse IgG1, kappa, V domains shown)
VH: QVQLQQSGAELMKPGASVKISCKATGYTFSNYWIEWVKQRPGHGLEWIGEILPGSDSIKYNENFKGKATFTADTSSNTAYMQLSSLTSEDSAVYYCARRGNYPDYWGQGTTLTVSS
VL: DVVMTQTPLSLPVSLGDQASISCRSSQSLVHSNGNTYLHWYLQKPGQSPKLLIYKVSNRFSGVPDRFSGSGSGTDFTLKISRVEAEDLGVYFCSQSTHVPLTFGAGTKLELKR
B2: anti-tau antibody MC1 expressed from viral genome construct MC1LF.F2AH (TAU_ITR78; SEQ ID NO: 2067) (antibody, V domains shown)
VH: B1 VH
VL: B1 VL
B3: anti-tau antibody MC1 expressed from viral genome construct MC1HF.P2AL (TAU_ITR73; SEQ ID NO: 2062) (antibody, V domains shown)
VH: B1 VH
VL: B1 VL
B4: anti-tau antibody MC1 expressed from viral genome construct MC1LIRESH (TAU_ITR80; SEQ ID NO: 2069) (antibody, mouse IgG1, kappa, V domains shown)
VH: B1 VH
VL: B1 VL
B5: anti-tau antibody MC1 expressed from viral genome construct MC1LP2AH (TAU_ITR82; SEQ ID NO: 2071) (antibody, V domains shown)
VH: B1 VH
VL: B1 VL
B6: anti-tau antibody MC1 expressed from viral genome construct MC1HF.F2AL (TAU_ITR72; SEQ ID NO: 2061) (antibody, V domains shown)
VH: B1 VH
VL: B1 VL
B7: anti-tau antibody MC1 expressed from viral genome construct MC1LF.P2AH (TAU_ITR83; SEQ ID NO: 2072) (antibody, V domains shown)
VH: B1 VH
VL: B1 VL
B8: anti-tau antibody MC1 expressed from viral genome construct MC1LF2AH (TAU_ITR79; SEQ ID NO: 2068) (antibody, V domains shown)
VH: B1 VH
VL: B1 VL
B9: IPN002 antibody expressed from CAG-IPN002-HF.T2AL (TAU_ITR1) (antibody, V domains shown)
VH: EVHLVESGGALVKPGGSLKLSCAASGFSFSKYGMSWVRQTPDKRLEWVATISSSGSRTYYPDSVKGQFTISRDNAKNTLYLQMSSLKSEDTAMYYCSISWDGAMDYWGQGTSVTVSS
VL: DVLMTQTPLSLPVSLGDQASISCKSSQSIVHSNGNTYLEWYLQKPGQSPKLLVYKVSNRFSGVPDRFSGSGSGTDFTLKISRVEAEDLGTYYCFQGSLVPWAFGGGTKLEIK
B10: IPN002 antibody expressed from CB6-IPN002-HF.T2AL (TAU_ITR4) (antibody, V domains shown)
VH: B9 VH
VL: B9 VL
B11: IPN002 antibody expressed from CAG-IPN002-LF2AH (TAU_ITR9) (antibody, V domains shown)
VH: B9 VH
VL: B9 VL
B12: IPN002 Fab_ext expressed from TAU_ITR128 (CAG, HF.T2AL) (Fab, V domains shown)
VH: B9 VH
VL: B9 VL
B13: IPN002 Fab_ext expressed from TAU_ITR130 (CAG, LT2AH) (Fab, V domains shown)
VH: B9 VH
VL: B9 VL
notes: Extended Fab
B14: IPN002 Fab_ext expressed from TAU_ITR124 (CBA, hGbin, HF.T2AL) (Fab, V domains shown)
VH: B9 VH
VL: B9 VL
B15: IPN002 antibody expressed from CB6-IPN002-HF.F2AL (TAU_ITR3) (antibody, V domains shown)
VH: B9 VH
VL: B9 VL
B16: IPN002 Fab expressed from TAU_ITR127 (CAG, HF.T2AL) (Fab, V domains shown)
VH: B9 VH
VL: B9 VL
B17: IPN002 Fab expressed from TAU_ITR123 (CBA, hGbin, HF.T2AL) (Fab, V domains shown)
VH: B9 VH
VL: B9 VL
B18: IPN002 antibody expressed from CB6-IPN002-LT2AH (TAU_ITR87) (antibody, V domains shown)
VH: B9 VH
VL: B9 VL
notes: Full antibody
B19: IPN002 antibody expressed from CAG-IPN002-HF.F2AL (TAU_ITR2) (antibody, V domains shown)
VH: B9 VH
VL: B9 VL
B20: IPN002 antibody expressed from CAG-IPN002-LT2AH (TAU_ITR10) (antibody, V domains shown)
VH: B9 VH
VL: B9 VL
notes: Full antibody
B21: IPN002 antibody expressed from CB6-IPN002-LF2AH (TAU_ITR11) (antibody, V domains shown)
VH: B9 VH
VL: B9 VL
B22: IPN002 Fab_ext expressed from TAU_ITR129 (CBA, hGbin, LT2AH) (Fab, V domains shown)
VH: B9 VH
VL: B9 VL
notes: Extended Fab

Assays:
[1] = biological target: T1, extracellular tau in the form of paired helical filaments (ePHF tau) (UniProt P10636-8 1-441, limits assumed); assay: ePHF tau ELISA, ePHF coated; antibody at 1000.0 ng/ml; anti-mouse-HRP
T1 construct: Aggregated, hyperphosphorylated tau preparation; not a single defined polypeptide

[2] = biological target: T1, extracellular tau in the form of paired …; assay: ePHF tau ELISA, ePHF coated; antibody at 500.0 ng/ml; anti-mouse-HRP
[3] = biological target: T1, extracellular tau in the form of paired …; assay: ePHF tau ELISA, ePHF coated; antibody at 55.6 ng/ml; anti-mouse-HRP
[4] = biological target: T1, extracellular tau in the form of paired …; assay: ePHF tau ELISA, ePHF coated; antibody at 2.1 ng/ml; anti-mouse-HRP
[5] = biological target: T1, extracellular tau in the form of paired …; assay: ePHF tau ELISA, ePHF coated; antibody at 18.5 ng/ml; anti-mouse-HRP
[6] = biological target: T1, extracellular tau in the form of paired …; assay: ePHF tau ELISA, ePHF coated; antibody at 0.7 ng/ml; anti-mouse-HRP
[7] = biological target: T1, extracellular tau in the form of paired …; assay: ePHF tau ELISA, ePHF coated; antibody at 6.2 ng/ml; anti-mouse-HRP
[8] = biological target: T1, extracellular tau in the form of paired …; assay: ePHF tau ELISA, ePHF coated; antibody at 166.7 ng/ml; anti-mouse-HRP
[9] = biological target: T2, wild-type tau (441 amino acids; tau441; NP_005901.2) (human, UniProt P10636 1-758); assay: wild-type tau ELISA, ExpiCHO supernatant
T2 construct: Unphosphorylated recombinant tau441 used in the wild-type tau ELISA; also called wt tau441; wtTau

[10] = biological target: T2, wild-type tau (441 amino acids; tau441; …); assay: wtTau ELISA

T1 sequence (P10636 other isoform, or with tags, fused parts or gaps limits assumed): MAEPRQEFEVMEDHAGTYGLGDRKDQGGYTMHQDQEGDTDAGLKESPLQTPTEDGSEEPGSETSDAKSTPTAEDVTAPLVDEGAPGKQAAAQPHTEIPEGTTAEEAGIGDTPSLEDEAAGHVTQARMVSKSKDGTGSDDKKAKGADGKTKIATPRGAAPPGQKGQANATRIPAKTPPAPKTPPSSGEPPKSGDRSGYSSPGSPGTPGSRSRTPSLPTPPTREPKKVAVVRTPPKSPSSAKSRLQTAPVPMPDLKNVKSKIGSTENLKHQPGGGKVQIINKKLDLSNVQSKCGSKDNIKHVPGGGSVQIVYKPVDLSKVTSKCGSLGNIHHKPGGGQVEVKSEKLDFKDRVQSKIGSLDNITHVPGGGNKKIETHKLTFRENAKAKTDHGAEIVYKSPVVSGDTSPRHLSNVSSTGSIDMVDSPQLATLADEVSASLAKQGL
T2 sequence (P10636 other isoform, or with tags, fused parts or gaps limits assumed): as above

Row | Binder | OD450 [1] | OD450 [2] | OD450 [3] | OD450 [4] | OD450 [5] | OD450 [6] | OD450 [7] | OD450 [8] | binding result [9] | binding result [10]
1 | B1 | 1 OD450 | 0.7 OD450 | 0.2 OD450 | 0.1 OD450 | 0.1 OD450 | 0.1 OD450 | 0.1 OD450 | 0.3 OD450 | – | –
2 | B2 | 1.1 OD450 | 1 OD450 | 0.4 OD450 | 0.1 OD450 | 0.2 OD450 | 0.1 OD450 | 0.1 OD450 | 0.7 OD450 | – | –
3 | B3 | 0.9 OD450 | 0.9 OD450 | 0.4 OD450 | 0.1 OD450 | 0.2 OD450 | 0.1 OD450 | 0.1 OD450 | 0.6 OD450 | – | –
4 | B4 | 1 OD450 | 0.9 OD450 | 0.3 OD450 | 0.1 OD450 | 0.2 OD450 | 0.1 OD450 | 0.1 OD450 | 0.6 OD450 | – | –
5 | B5 | 0.8 OD450 | 0.7 OD450 | 0.2 OD450 | 0.1 OD450 | 0.1 OD450 | 0.1 OD450 | 0.1 OD450 | 0.4 OD450 | – | –
6 | B6 | 1.1 OD450 | 1 OD450 | 0.5 OD450 | 0.1 OD450 | 0.3 OD450 | 0.1 OD450 | 0.2 OD450 | 0.7 OD450 | – | –
7 | B7 | 0.6 OD450 | 0.4 OD450 | 0.1 OD450 | 0.1 OD450 | 0.1 OD450 | 0.1 OD450 | 0.1 OD450 | 0.2 OD450 | – | –
8 | B8 | 1.1 OD450 | 1 OD450 | 0.4 OD450 | 0.1 OD450 | 0.2 OD450 | 0.1 OD450 | 0.1 OD450 | 0.7 OD450 | – | –
9 | B9 | – | – | – | – | – | – | – | – | binds | –
10 | B10 | – | – | – | – | – | – | – | – | binds | –
11 | B11 | – | – | – | – | – | – | – | – | binds | –
12 | B12 | – | – | – | – | – | – | – | – | – | binds
13 | B13 | – | – | – | – | – | – | – | – | – | binds
14 | B14 | – | – | – | – | – | – | – | – | – | binds
15 | B15 | – | – | – | – | – | – | – | – | binds | –
16 | B16 | – | – | – | – | – | – | – | – | – | binds
17 | B17 | – | – | – | – | – | – | – | – | – | binds
18 | B18 | – | – | – | – | – | – | – | – | binds | –
19 | B19 | – | – | – | – | – | – | – | – | binds | –
20 | B20 | – | – | – | – | – | – | – | – | binds | –
21 | B21 | – | – | – | – | – | – | – | – | binds | –
22 | B22 | – | – | – | – | – | – | – | – | – | binds

Source: patent publication US20220339270A1 (published 2022)
